Data published in article PMC5034116 (Cell Research, 2016).

Biological target: the molecule itself
Assay: crystal structure

B1: NudC (residues 1-257, E178Q), Escherichia coli, active-site mutant (enzyme, UniProt P32664 1-257, looked up)
chain: MDRIIEKLDHGWWVVSHEQKLWLPKGELPYGEAANFDLVGQRALQIGEWQGEPVWLVQQQRRHDMGSVRQVIDLDVGLFQLAGRGVQLAEFYRSHKYCGYCGHEMYPSKTEWAMLCSHCRERYYPQIAPCIIVAIRRDDSILLAQHTRHRNGVHTVLAGFVEVGETLEQAVAREVMEQSGIKVKNLRYVTSQPWPFPQSLMTAFMAEYDSGDIVIDPKELLEANWYRYDDLPLLPPPGTVARRLIEDTVAMCRAEYE
- stoichiometry N: 2
